The values below come from patent US20250188176A1 (INVETX, published 2025).

Usually Kd stands for a measure of binding affinity in units of concentration. The low end stands for tighter binding, the high end for weaker binding. For orientation: koff means the rate constant with which the complex falls apart. By kon is commonly meant the rate constant with which the complex forms. Read a low kon as slow association.

The chains are these.
B1: Gfmix_PTH-H + 21188-L (antibody, V domains shown)
VH: EVQLVESGGDLVKPGGSLRLSCVASGFPFRDYAMTWVRQAPGKGLQWLSLISGSGGKTYYADAVKGRFTISRDNAKNTLYLQMNSLRAEDTAVYYCAVDRLTKTIRPQYYGLWHWGQGTLVTVSS
VL: DIVMTQTPLSLSVSPGETASISCRSSQSLTYSIGYNYLDWYMQKPGQSPQGLIYLGSKRASGVSDRFSGSGSGADFTLKISRVEADDAGVYYCMQGLQSPLGFGQGTKLEIKR
B2: FJP05A03-H + 21188-L (antibody, V domains shown)
VH: EVQLVESGGDLVKPGGSLRLSCVASGLPFRDYAMAWVRQAPGKGLQWLSLISGSGGKTYYADAVKGRFTISRDNAKNTLYLQMNSLRAEDTAVYYCAVDRLTKTIRPQYYGLWVWGQGTLVTVSS
VL: DIVMTQTPLSLSVSPGETASISCRSSQSLTYSIGYNYLDWYMQKPGQSPQGLIYLGSKRASGVSDRFSGSGSGADFTLKISRVEADDAGVYYCMQGLQSPLGFGQGTKLEIKR
B3: FJP07H09-H + 21188-L (antibody, V domains shown)
VH: EVQLVESGGDLVKPGGSLRLSCVASGFTFRDYAMDWVRQAPGKGLQWLSLISGSGGKTYYADAVKGRFTISRDNAKNTLYLQMNSLRAEDTAVYYCAVDRLTKTIRPQYYGLWSWGQGTLVTVSS
VL: DIVMTQTPLSLSVSPGETASISCRSSQSLTYSIGYNYLDWYMQKPGQSPQGLIYLGSKRASGVSDRFSGSGSGADFTLKISRVEADDAGVYYCMQGLQSPLGFGQGTKLEIKR
B4: FJP06D01-H + 21188-L (antibody, V domains shown)
VH: EVQLVESGGDLVKPGGSLRLSCVASGFPFRDYAMDWVRQAPGKGLQWLSLISGSGGKTYYADAVKGRFTISRDNAKNTLYLQMNSLRAEDTAVYYCAVDRLTKTIRPQYYGLWVWGQGTLVTVSS
VL: DIVMTQTPLSLSVSPGETASISCRSSQSLTYSIGYNYLDWYMQKPGQSPQGLIYLGSKRASGVSDRFSGSGSGADFTLKISRVEADDAGVYYCMQGLQSPLGFGQGTKLEIKR
B5: Fjmix_PS-H + 21188-L (antibody, V domains shown)
VH: EVQLVESGGDLVKPGGSLRLSCVASGFPFRDYAMDWVRQAPGKGLQWLSLISGSGGKTYYADAVKGRFTISRDNAKNTLYLQMNSLRAEDTAVYYCAVDRLTKTIRPQYYGLWSWGQGTLVTVSS
VL: DIVMTQTPLSLSVSPGETASISCRSSQSLTYSIGYNYLDWYMQKPGQSPQGLIYLGSKRASGVSDRFSGSGSGADFTLKISRVEADDAGVYYCMQGLQSPLGFGQGTKLEIKR
B6: 21188-H + FJP10A09-L (antibody, V domains shown)
VH: EVQLVESGGDLVKPGGSLRLSCVASGFTFRDYAMTWVRQAPGKGLQWLSLISGSGGKTYYADAVKGRFTISRDNAKNTLYLQMNSLRAEDTAVYYCAVDRLTKTIRPQYYGLWHWGQGTLVTVSS
VL: DIVMTQTPLSLSVSPGETASISCRSSQSLTYSIGYNYLDWYMQKPGQSPQGLIYLGSKRASGVSDRFSGSGSGADFTLKISRVEADDAGVYYCMQGLHSPLSFGQGTKLEIKR
B7: 21188-H + GFmix3_KTHS-L (antibody, V domains shown)
VH: EVQLVESGGDLVKPGGSLRLSCVASGFTFRDYAMTWVRQAPGKGLQWLSLISGSGGKTYYADAVKGRFTISRDNAKNTLYLQMNSLRAEDTAVYYCAVDRLTKTIRPQYYGLWHWGQGTLVTVSS
VL: DIVMTQTPLSLSVSPGETASISCRSSKSLTYSIGYNYLDWYMQKPGQSPQGLIYLGSKRASGVSDRFSGSGSGADFTLKISRVEADDAGVYYCMQGLHSPLSFGQGTKLEIKR
B8: 21188-H + FJP10F04-L (antibody, V domains shown)
VH: EVQLVESGGDLVKPGGSLRLSCVASGFTFRDYAMTWVRQAPGKGLQWLSLISGSGGKTYYADAVKGRFTISRDNAKNTLYLQMNSLRAEDTAVYYCAVDRLTKTIRPQYYGLWHWGQGTLVTVSS
VL: DIVMTQTPLSLSVSPGETASISCRSSKSLLYSIGYNYLDWYMQKPGQSPQGLIYLGSKRASGVSDRFSGSGSGADFTLKISRVEADDAGVYYCMQGLHSPLTFGQGTKLEIKR
B9: 21188-H + GFmix2_KTHG-L (antibody, V domains shown)
VH: EVQLVESGGDLVKPGGSLRLSCVASGFTFRDYAMTWVRQAPGKGLQWLSLISGSGGKTYYADAVKGRFTISRDNAKNTLYLQMNSLRAEDTAVYYCAVDRLTKTIRPQYYGLWHWGQGTLVTVSS
VL: DIVMTQTPLSLSVSPGETASISCRSSKSLTYSIGYNYLDWYMQKPGQSPQGLIYLGSKRASGVSDRFSGSGSGADFTLKISRVEADDAGVYYCMQGLHSPLGFGQGTKLEIKR
B10: 21188-H + GFmix_THS-L (antibody, V domains shown)
VH: EVQLVESGGDLVKPGGSLRLSCVASGFTFRDYAMTWVRQAPGKGLQWLSLISGSGGKTYYADAVKGRFTISRDNAKNTLYLQMNSLRAEDTAVYYCAVDRLTKTIRPQYYGLWHWGQGTLVTVSS
VL: DIVMTQTPLSLSVSPGETASISCRSSQSLTYSIGYNYLDWYMQKPGQSPQGLIYLGSKRASGVSDRFSGSGSGADFTLKISRVEADDAGVYYCMQGLHSPLGFGQGTKLEIKR
B11: TB640_057 (antibody, V domains shown)
VH: EVQLVESGGDLVKPGGSLRLSCVASGFTFRDYAMTWVRQAPGKGLQWVSTITGSGGNTYYADAVKGRFTISRDNAKNTLYLQMNSLRAEDTAVYYCAKDRLSITIRPRYYGLDVWGQGTLVTVSS
VL: DIVMTQTPLSLSVSPGETASISCRASQSLLYSIGYNYLDWYLQKPGQSPQGLIYLGSKRASGVPDRFSGSGSGTDFTLRISRVEANDTGVYYCMQAIQAPYTFGQGTKLEIKR
notes: caninized IgG
B12: TB640_109 (antibody, V domains shown)
VH: EVQLVESGGDLVKPGGSLRLSCVASGFTFRDYAMTWVRQAPGKGLQWVSTISGSGGKTYYADAVKGRFTISRDNAKNTLYLQMNSLRAEDTAVYYCAVDRLTKTIRPQYYGLSVWGQGTLVTVSS
VL: DIVMTQTPLSLSVSPGETASISCRASQSLLYSIGYNYLDWYLQKPGQSPQGLIYLGSKRASGVPDRFSGSGSGTDFTLRISRVEANDTGVYYCMQALRDPYTFGQGTKLEIKR
notes: caninized IgG

For the first assay, the target named is T1, Extracellular domain (ECD) of the canine IL-4 receptor alpha-AviTag-His Tag (canine).
T1 construct: expressed in CHO cells; also called canine IL-4RA; canine IL4Ra
T1 chain: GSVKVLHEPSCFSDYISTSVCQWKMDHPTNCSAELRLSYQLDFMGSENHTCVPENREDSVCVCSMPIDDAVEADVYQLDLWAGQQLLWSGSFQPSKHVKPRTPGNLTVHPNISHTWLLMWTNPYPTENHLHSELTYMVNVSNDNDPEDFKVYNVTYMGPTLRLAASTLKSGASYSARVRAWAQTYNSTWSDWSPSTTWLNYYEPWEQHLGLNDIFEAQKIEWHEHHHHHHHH
Put plainly: SPR, IgG captured via anti-dog Fc. A general note: Surface plasmon resonance follows binding to a sensor surface in real time, without labels.
Description: (§1) Both the heavy and light chain variants were evaluated for their binding kinetics to canine IL-4RA using SPR on a Biacore T200. The antibodies were captured using a CM5 Series S chip amine coupled with an anti-dog Fc antibody (Jackson Immunoresearch). […] The length of the association time was 120 s and the dissociation time was run for 600 s. The chip surface was regenerated with 10 mM glycine. Double reference-subtracted sensorgrams were fitted to a 1:1 binding model using Biacore T200 Evaluation software.
For B1, the Kd worked out at 0.381 nM, the koff was 9.71e-05 s⁻¹ and the kon came to 255000 M⁻¹ s⁻¹.

As for B2, the Kd is 0.377 nM, the dissociation rate constant (koff) came to 0.000105 s⁻¹ and the kon came to 279000 M⁻¹ s⁻¹.

B3 showed a Kd of 1.07 nM, a koff of 0.000253 s⁻¹ and a kon of 236000 M⁻¹ s⁻¹.

As for B4, binding was put at a Kd of 0.908 nM, the koff is 0.000208 s⁻¹ and the kon was 230000 M⁻¹ s⁻¹.

With B5, the affinity, expressed as Kd, was 0.878 nM; the koff is 0.000206 s⁻¹; the kon turned out to be 235000 M⁻¹ s⁻¹.

The target in another assay is T1, Extracellular domain (ECD) of the …. Put plainly: SPR, IgG captured via anti-dog Fc. This is another data set of the same source.
Description: as §1
B6 registered a Kd of 0.143 nM, a koff of 4.62e-05 s⁻¹ and a kon of 324000 M⁻¹ s⁻¹.

Molecule B7 had a Kd of 0.144 nM, a koff of 4.79e-05 s⁻¹ and a kon of 333000 M⁻¹ s⁻¹.

For the molecule B8, the Kd stood at 0.238 nM, the koff is 6.81e-05 s⁻¹ and the kon amounted to 286000 M⁻¹ s⁻¹.

B9 returned a Kd of 0.168 nM, a koff of 5.92e-05 s⁻¹ and a kon of 354000 M⁻¹ s⁻¹.

As to B10, the Kd came out at 0.162 nM, the koff was 5.78e-05 s⁻¹ and the kon was 357000 M⁻¹ s⁻¹.

The target is the same in the next assay. Nature of the assay: SPR, IgG captured via anti-dog H+L.
Description: Affinities were determined by SPR on a Biacore T200. The antibodies were captured using a CM5 Series S chip amine coupled with an anti-dog H+L antibody (Jackson Immunoresearch). Antigen, canine IL-4RA (EQ ID NO:2), binding was then assessed at multiple concentrations starting at 100 nM using PBSP+ running buffer (Cytiva) with a flow rate of 30 μL/min. […] The length of the association time was 120 s and the dissociation time was run for 600 s. The chip surface was regenerated with 10 mM glycine.
B11 returned a Kd of 5.54 nM, a koff of 0.00107 s⁻¹ and a kon of 194000 M⁻¹ s⁻¹.

For the molecule B12, the Kd is 6.06 nM, the koff turned out to be 0.00136 s⁻¹ and the kon stood at 225000 M⁻¹ s⁻¹.
